From patent US20240117334A1, “FACTOR B PROTEASES” (Vertex Pharmaceuticals Incorporated, priority 2021, published 2024)
Positions count from the first letter of the chain named. Numbers in names are those of the source.

B1: chymase C22S/P38Q/K40M/F41R/V138I/F173L/D175K/A190S/V213A/S218V/A226R (enzyme)
chain: IIGGTESKPHSRPYMAYLEIVTSNGQSMRCGGFLIRRNFVLTAAHCAGRSITVTLGAHNITEEEDTWQKLEVIKQFRHPKYNTSTLHHDIMLLKLKEKASLTLAVGTLPFPSQFNFVPPGRMCRIAGWGRTGVLKPGSDTLQEVKLRLMDPQACSHLRKFDHNLQLCVGNPRKTKSSFKGDSGGPLLCAGVAQGIASYGRVDAKPPRVFTRISHYRPWINQILQAN
B2: chymase C22S/K40L/F41R/L99H/F173Y/D175Y/S218I/A226R (enzyme)
chain: B1 chain with Q26P, M28L, L86H, I125V, L157Y, K159Y, S177A, A196V, V201I
B3: chymase C22S/P38Q/K40L/F41R/L99N/V138I/F173Y/D175N/A190S/V213A/S218V/A226R (enzyme)
chain: B1 chain with M28L, L86N, L157Y, K159N
B4: chymase C22S/P38Q/K40L/F41R/V138I/F173M/D175N/A190S/V213A/S218L/A226R (enzyme)
chain: B1 chain with M28L, L157M, K159N, V201L
B5: chymase C22S/P38Q/V138I/A190S/V213A/A226R (enzyme)
chain: B1 chain with M28K, R29F, L157F, K159D, V201S
B6: chymase C22S/P38Q/K40M/F41R/L99Y/V138I/F173L/D175S/A190S/V213A/S218V/A226R (enzyme)
chain: B1 chain with L86Y, K159S
B7: chymase C22S/P38Q/K40A/F41R/L99H/D175N/V213Q/S218I/A226R/F228A (enzyme)
chain: B1 chain with M28A, L86H, I125V, L157F, K159N, S177A, A196Q, V201I, F209A
B8: chymase C22S/P38Q/K40M/F41K/L99Y/V138I/F173M/D175Y/A190S/V213A/S218V/A226R (enzyme)
chain: B1 chain with R29K, L86Y, L157M, K159Y
B9: chymase C22S/P38Q/K40A/F41R/V138I/D175R/A190S/V213A/S218T/A226R (enzyme)
chain: B1 chain with M28A, L157F, K159R, V201T
B10: chymase C22S/P38Q/K40A/F41R/L99H/V138I/F173M/D175T/A190S/V213A/S218I/A226R (enzyme)
chain: B1 chain with M28A, L86H, L157M, K159T, V201I
B11: chymase C22S/P38Q/K40L/F41R/L99M/V138I/F173L/D175R/A190S/V213A/S218V/A226R (enzyme)
chain: B1 chain with M28L, L86M, K159R
B12: chymase C22S/P38Q/K40A/F41R/L99H/V138I/F173Y/D175N/A190S/V213A/S218I/A226R (enzyme)
chain: B1 chain with M28A, L86H, L157Y, K159N, V201I
B13: chymase C22S/P38Q/K40M/F41R/L99Y/V138I/F173L/D175Q/A190S/V213A/S218T/A226R (enzyme)
chain: B1 chain with L86Y, K159Q, V201T
B14: chymase C22S/K40L/F41K/L99H/F173Y/D175S/S218I/A226R (enzyme)
chain: B1 chain with Q26P, M28L, R29K, L86H, I125V, L157Y, K159S, S177A, A196V, V201I
B15: chymase C22S/P38Q/K40A/F41R/V138I/F173L/D175R/A190S/V213A/S218L/A226R (enzyme)
chain: B1 chain with M28A, K159R, V201L
B16: chymase C22S/P38Q/K40L/F41R/L99Q/V138I/F173Y/D175N/A190S/V213A/S218V/A226R (enzyme)
chain: B1 chain with M28L, L86Q, L157Y, K159N
B17: chymase C22S/P38Q/K40V/F41R/L99H/V138I/F173M/D175N/A190S/V213A/S218T/A226R (enzyme)
chain: B1 chain with M28V, L86H, L157M, K159N, V201T
B18: chymase C22S/P38Q/K40M/F41R/V138I/F173L/D175N/A190S/V213A/S218L/A226R (enzyme)
chain: B1 chain with K159N, V201L
B19: chymase C22S/K40M/F41K/L99N/F173Y/D175R/S218T/A226R (enzyme)
chain: B1 chain with Q26P, R29K, L86N, I125V, L157Y, K159R, S177A, A196V, V201T
B20: chymase C22S/P38Q/K40L/F41R/L99H/V138I/F173Y/D175S/A190S/V213A/S218I/A226R (enzyme)
chain: B1 chain with M28L, L86H, L157Y, K159S, V201I
B21: chymase C22S/P38Q/K40L/F41K/L99N/V138I/F173Y/D175S/A190S/V213A/S218I/A226R (enzyme)
chain: B1 chain with M28L, R29K, L86N, L157Y, K159S, V201I
B22: chymase C22S/P38Q/K40V/F41R/V138I/F173L/D175N/A190S/V213A/S218V/A226R (enzyme)
chain: B1 chain with M28V, K159N
B23: chymase C22S/P38Q/K40M/F41R/V138I/F173Y/D175R/A190S/V213A/S218V/A226R (enzyme)
chain: B1 chain with L157Y, K159R
B24: chymase C22S/P38Q/K40M/F41H/V138I/F173Y/D175R/A190S/V213A/S218V/A226R (enzyme)
chain: B1 chain with R29H, L157Y, K159R
B25: chymase C22S/P38Q/K40L/F41R/V138I/D175N/A190S/V213A/S218V/A226R (enzyme)
chain: B1 chain with M28L, L157F, K159N
B26: chymase C22S/P38Q/K40M/F41R/L99Y/V138I/F173L/D175S/A190S/V213A/S218T/A226R (enzyme)
chain: B1 chain with L86Y, K159S, V201T
B27: chymase C22S/K40M/F41R/L99Q/F173Y/D175R/S218V/A226R (enzyme)
chain: B1 chain with Q26P, L86Q, I125V, L157Y, K159R, S177A, A196V
B28: chymase C22S/K40M/F41R/L99Q/F173Y/D175R/S218I/A226R (enzyme)
chain: B1 chain with Q26P, L86Q, I125V, L157Y, K159R, S177A, A196V, V201I
B29: chymase C22S/P38Q/K40A/F41R/L99H/F173Y/D175Y/V213Q/S218V/A226R/F228A (enzyme)
chain: B1 chain with M28A, L86H, I125V, L157Y, K159Y, S177A, A196Q, F209A

target: Human Factor B (human) (UniProt P00751); test: cell-based or functional assay
Sequence (P00751 26-764 limits assumed): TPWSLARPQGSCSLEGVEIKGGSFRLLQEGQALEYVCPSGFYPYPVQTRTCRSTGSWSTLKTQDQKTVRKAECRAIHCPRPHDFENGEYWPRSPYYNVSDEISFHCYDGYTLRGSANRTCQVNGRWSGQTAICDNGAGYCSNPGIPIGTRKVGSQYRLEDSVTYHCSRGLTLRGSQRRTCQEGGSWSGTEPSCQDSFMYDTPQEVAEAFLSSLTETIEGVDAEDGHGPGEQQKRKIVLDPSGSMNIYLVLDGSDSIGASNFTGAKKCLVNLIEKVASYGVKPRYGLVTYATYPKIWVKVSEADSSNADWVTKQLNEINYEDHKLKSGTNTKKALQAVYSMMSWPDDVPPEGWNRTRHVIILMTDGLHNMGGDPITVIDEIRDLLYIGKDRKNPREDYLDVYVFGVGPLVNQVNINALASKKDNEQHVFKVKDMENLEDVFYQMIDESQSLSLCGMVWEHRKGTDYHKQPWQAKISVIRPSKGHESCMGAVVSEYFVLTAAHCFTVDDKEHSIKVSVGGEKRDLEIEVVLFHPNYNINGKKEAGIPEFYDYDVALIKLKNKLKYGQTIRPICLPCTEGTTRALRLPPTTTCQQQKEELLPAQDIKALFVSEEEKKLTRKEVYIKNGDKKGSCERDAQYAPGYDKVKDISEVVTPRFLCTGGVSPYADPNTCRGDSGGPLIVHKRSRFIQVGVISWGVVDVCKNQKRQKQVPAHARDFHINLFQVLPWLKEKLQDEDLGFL

Row | fB Cleavage EC50 [nM] | fB Cleavage, 80% plasma EC50 [nM] | EC50 (Factor B ELISA after digestion) [nM] | Binder
1 | 350 |  |  | B1
2 | 84 | 5560 |  | B2
3 | 65.3 |  |  | B3
4 | 456 |  |  | B4
5 | 1350 |  |  | B5
6 | 814 |  |  | B6
7 | 553 |  |  | B7
8 | 448 |  |  | B8
9 | 262 |  |  | B9
10 | 882 |  |  | B10
11 | 213 |  |  | B11
12 | 92.9 |  |  | B12
13 | 1650 |  |  | B13
14 | 101 | 4620 |  | B14
15 | 283 |  |  | B15
16 | 102 |  |  | B16
17 | 639 |  |  | B17
18 | 482 |  |  | B18
19 | 216 | 4130 |  | B19
20 | 60.3 |  |  | B20
21 | 144 |  |  | B21
22 | 279 |  |  | B22
23 | 28.1 |  | 30.2 | B23
24 | 47.6 |  |  | B24
25 | 114 |  |  | B25
26 | 1230 |  |  | B26
27 | 235 | 4070 |  | B27
28 | 213 | 4480 |  | B28
29 | 769 |  |  | B29
